In paper PMC4155688, “Mapping the Putative G Protein-coupled Receptor (GPCR) Docking Site on GPCR Kinase 2” (The Journal of Biological Chemistry, 2014):

B1: RlucII-GRK2 (wild type) [human] / α2AAR-GFP^2 [not stated] (parent)
chain 1: MADLEAVLADVSYLMAMEKSKATPAARASKKILLPEPSIRSVMQKYLEDRGEVTFEKIFSQKLGYLLFRDFCLNHLEEARPLVEFYEEIKKYEKLETEEERVARSREIFDSYIMKELLACSHPFSKSATEHVQGHLGKKQVPPDLFQPYIEEICQNLRGDVFQKFIESDKFTRFCQWKNVELNIHLTMNDFSVHRIIGRGGFGEVYGCRKADTGKMYAMKCLDKKRIKMKQGETLALNERIMLSLVSTGDCPFIVCMSYAFHTPDKLSFILDLMNGGDLHYHLSQHGVFSEADMRFYAAEIILGLEHMHNRFVVYRDLKPANILLDEHGHVRISDLGLACDFSKKKPHASVGTHGYMAPEVLQKGVAYDSSADWFSLGCMLFKLLRGHSPFRQHKTKDKHEIDRMTLTMAVELPDSFSPELRSLLEGLLQRDVNRRLGCLGRGAQEVKESPFFRSLDWQMVFLQKYPPPLIPPRGEVNAADAFDIGSFDEEDTKGIKLLDSDQELYRNFPLTISERWQQEVAETVFDTINAETDRLEARKKAKNKQLGHEEDYALGKDCIMHGYMSKMGNPFLTQWQRRYFYLFPNRLEWRGEGEAPQSLLTMEEIQSVEETQIKERKCLLLKIRGGKQFILQCDSDPELVQWKKELRDAYREAQQLVQRVPKMKNKPRSPVVELSKVPLVQRGSANGL
chain 2: MFRQEQPLAEGSFAPMGSLQPDAGNASWNGTEAPGGGARATPYSLQVTLTLVCLAGLLMLLTVFGNVLVIIAVFTSRALKAPQNLFLVSLASADILVATLVIPFSLANEVMGYWYFGKAWCEIYLALDVLFCTSSIVHLCAISLDRYWSITQAIEYNLKRTPRRIKAIIITVWVISAVISFPPLISIEKKGGGGGPQPAEPRCEINDQKWYVISSCIGSFFAPCLIMILVYVRIYQIAKRRTRVPPSRRGPDAVAAPPGGTERRPNGLGPERSAGPGGAEAEPLPTQLNGAPGEPAPAGPRDTDALDLEESSSSDHAERPPGPRRPERGPRGKGKARASQVKPGDSLPRRGPGATGIGTPAAGPGEERVGAAKASRWRGRQNREKRFTFVLAVVIGVFVVCWFPFFFTYTLTAVGCSVPRTLFKFFFWFGYCNSSLNPVIYTIFNHDFRRAFKKILCRGDRKRIV

Variants of: B1
Assay: BRET
Settings: with α2AAR-GFP^2; HEK293T cells; 100 μm NOR for 6 min; read off a plot
chain 1 K220R showed a response of 0.032.
With chain 1 D481A the response was 0.049.
With chain 1 P473E the response was 0.033.
For chain 1 M15A, the response was 0.027.
In the case of chain 1 G475I, the response is reported as 0.016.
With chain 1 E18A the response was 0.05.
For chain 1 D10A, the response was 0.026.
chain 1 D10R was tested, and the response was 0.041.
chain 1 I485A showed a response of 0.018.
chain 1 D3A was tested, and the response was 0.026.
With chain 1 A482I the response was 0.059.

Variants of: B1
Assay: BRET dose-response
Settings: with α2AAR-GFP^2; HEK293T cells; point at highest NOR concentration, log [NOR] = -3; read off a plot
chain 1 K220R gave a response of 0.031.
